Reference: patent US20150322119A1

Experiments:
mouse FcRn (mouse) = mouse FcRn (mouse) (UniProt Q61559); experiment: SPR, FcRn coated on CM5 chip, antibody flowed at pH 6.0
[1] = target: murine FcγRIII, soluble form (mouse) (UniProt P08508); experiment: SPR, equilibrium KD
[2] = target: murine FcγRIIB, soluble form (mouse) (UniProt P08101); experiment: SPR, equilibrium KD
[3] = target: murine FcγRIV, soluble form (mouse); experiment: SPR, equilibrium KD
[4] = target: murine FcγRI extracellular domain with C-terminal 6×His-tag (mouse) (UniProt P26151); experiment: SPR, equilibrium KD
Chain of UniProt P26151 (P26151 other isoform, or with tags, fused parts or gaps): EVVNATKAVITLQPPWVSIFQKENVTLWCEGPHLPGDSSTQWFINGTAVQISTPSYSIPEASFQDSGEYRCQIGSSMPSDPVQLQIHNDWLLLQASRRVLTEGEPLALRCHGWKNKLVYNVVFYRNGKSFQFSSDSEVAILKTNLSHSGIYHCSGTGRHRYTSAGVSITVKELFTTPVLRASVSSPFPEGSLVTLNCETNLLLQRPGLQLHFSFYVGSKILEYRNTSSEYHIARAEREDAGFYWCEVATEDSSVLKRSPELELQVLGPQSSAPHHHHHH

Chain of UniProt Q61559 (Q61559 22-297 limits assumed): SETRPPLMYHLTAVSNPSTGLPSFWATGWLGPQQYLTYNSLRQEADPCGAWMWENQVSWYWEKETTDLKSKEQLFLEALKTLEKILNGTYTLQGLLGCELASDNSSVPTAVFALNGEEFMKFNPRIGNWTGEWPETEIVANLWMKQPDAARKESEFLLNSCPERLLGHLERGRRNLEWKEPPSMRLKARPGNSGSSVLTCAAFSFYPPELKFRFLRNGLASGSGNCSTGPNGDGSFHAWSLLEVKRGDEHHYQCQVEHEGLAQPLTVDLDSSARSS
Chain of UniProt P08101 (P08101 30-207 limits assumed): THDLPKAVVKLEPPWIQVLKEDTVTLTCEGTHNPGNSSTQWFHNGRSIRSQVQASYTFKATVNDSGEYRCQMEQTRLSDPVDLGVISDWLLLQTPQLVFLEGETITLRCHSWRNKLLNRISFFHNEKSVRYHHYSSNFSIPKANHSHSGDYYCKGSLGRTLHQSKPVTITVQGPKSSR
Chain of mouse anti-mouse CTLA-4 antibody 9D9, mouse IgG2a isotype (P01863 whole entry): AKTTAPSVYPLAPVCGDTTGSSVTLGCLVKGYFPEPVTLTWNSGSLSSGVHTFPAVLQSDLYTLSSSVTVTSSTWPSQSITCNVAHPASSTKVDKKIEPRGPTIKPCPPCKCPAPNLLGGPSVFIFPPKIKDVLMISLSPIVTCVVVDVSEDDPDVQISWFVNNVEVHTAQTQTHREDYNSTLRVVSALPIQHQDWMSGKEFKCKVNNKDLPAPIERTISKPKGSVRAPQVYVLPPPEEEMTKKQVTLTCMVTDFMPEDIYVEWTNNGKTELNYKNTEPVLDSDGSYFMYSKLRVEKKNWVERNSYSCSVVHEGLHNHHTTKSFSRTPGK
Chain of UniProt P08508 (P08508 31-215 limits assumed): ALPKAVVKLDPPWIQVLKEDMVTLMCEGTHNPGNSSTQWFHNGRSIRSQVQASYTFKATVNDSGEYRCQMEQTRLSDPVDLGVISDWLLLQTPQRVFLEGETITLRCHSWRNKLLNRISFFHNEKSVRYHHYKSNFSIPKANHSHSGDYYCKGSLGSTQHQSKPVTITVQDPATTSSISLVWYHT

Kd (mouse FcRn (mouse)) [nM] | Kd [1] [nM] | Kd [2] [nM] | Kd [3] [nM] | Kd [4] [nM] | Substance
24.6 | – | – | – | – | mouse anti-mouse CTLA-4 antibody 9D9, mouse IgG1 isotype containing a D265A mutation (from UniProt P01868 1-324)
19.7 | 2440 | 748 | 56.3 | – | mouse anti-mouse CTLA-4 antibody 9D9, mouse IgG2b isotype (original isotype, derived from the hybridoma)
22.4 | 1880 | 479 | – | – | mouse anti-mouse CTLA-4 antibody 9D9, mouse IgG1 isotype
13.5 | 1500 | 1410 | 29.4 | 32.7 | mouse anti-mouse CTLA-4 antibody 9D9, mouse IgG2a isotype
